Test results from US20030023034A1 (published 2003).

Molecular target: T1, cyclophilin B (GenBank Accession No. M60857) (UniProt P23284 34-216, limits assumed)
T1 construct: Yeast two-hybrid fusion; also called CYC-B
Assay: yeast matrix mating test (two-hybrid), growth on selective medium
Description: Briefly, cells were grown until mid-to-late log phase on media that selected for the presence of the appropriate plasmids. The two mating strains, alpha and a, were then, diluted in YAPD media, filtered onto nitrocellulose membranes, and incubated at 30 degrees Celsius for 6-8 hours. The cells were then transferred to media selective for the desired diploids, i.e., yeast harboring reporter genes for beta-galactosidase, uracil auxotrophy, and histidine auxotrophy, and expression of the vectors encoding the bait and prey. The mating products were plated on SC (synthetic complete) (Sambrook et al., 1989, A Laboratory Manual, 2nd Ed., Cold Spring Harbor Press, New York) media lacking adenine and lysine (to select for successful mating), leucine and tryptophan (to select for expression of genes encoded by both plasmids), and uracil and histidine (to select for protein interactions). This medium is herein referred to as SCS medium, for SC Selective medium.
To test for the specificity of p27(Kip1):FKBP-12 interaction, two general tests were first performed. In the first instance, YULH cells expressing FKBP-12 were created and plated on SC (synthetic complete) −Ura plates, grown for 1-2 days, and examined for growth. […]

T1 sequence (P23284 34-216 limits assumed, one chain of several): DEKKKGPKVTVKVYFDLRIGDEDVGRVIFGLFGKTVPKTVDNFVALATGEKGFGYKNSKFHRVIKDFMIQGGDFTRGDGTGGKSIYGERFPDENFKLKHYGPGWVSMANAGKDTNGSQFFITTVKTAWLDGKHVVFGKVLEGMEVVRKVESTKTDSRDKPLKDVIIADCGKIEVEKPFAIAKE

binding result: no binding
B1: p27(Kip1) (other)
chain: RDLEKHCRDMEEASQRKWNFDFQNHKPLEGKYEWQEVEKGSLPEFYYRPPRPPKGACKVPAQESQDVSGSRPAAPLIGAPANSEDTHLVDPKTDPSDSQTGLAEQCAGIRKRPATDDSSTQNKRANRTEENVSDGSPNAGSVEQTPKKPGLRRRQT
notes: Yeast two-hybrid fusion expressed in yeast; also called p27(Kip1) bait
